Test results taken from US20260274985A1 (MYTHIC THERAPEUTICS, published 2026).
Numbering of substitutions follows the chain as printed.

T1: TROP2 on TROP2-positive NCI-H1975 cells (human, UniProt P09758 27-323)
T1 sequence: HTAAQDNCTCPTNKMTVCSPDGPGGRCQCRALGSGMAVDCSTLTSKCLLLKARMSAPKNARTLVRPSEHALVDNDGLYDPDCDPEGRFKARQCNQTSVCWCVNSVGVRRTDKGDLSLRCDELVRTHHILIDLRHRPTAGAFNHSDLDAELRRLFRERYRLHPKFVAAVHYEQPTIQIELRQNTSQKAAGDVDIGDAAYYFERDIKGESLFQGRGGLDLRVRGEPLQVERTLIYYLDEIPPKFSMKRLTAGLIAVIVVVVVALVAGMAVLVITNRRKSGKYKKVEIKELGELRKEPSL

B1: MYT13429 (antibody, V domains shown)
VH: QVQLQQSGSELKKPGASVKVSCKASGYTFTNYGMNWVKQAPGQGLKWMGWINTYTGEPTYTDDFKHRFAFSLDTSVSTAYLQISSLKADDTAVYFCARGGFGSSYWYFDVWGQGSLVTVSS
VL: DIQLTQSPSSLSASVGDRVSITCKASQDVHIAVAWYQQKPGKAPKLLIYSHSYRYTGVPDRFSGSGSGTDFTLTISSLQPEDFAVYYCQQHYHTPLTFGAGTKVEIK
B2: MYT13386 (antibody, V domains shown)
VH: B1 VH with D63H, H66G
VL: B1 VL with H51A, S52H, H93I
B3: MYT13437 (antibody, V domains shown)
VH: B1 VH
VL: B1 VL with H30S, Y53H
B4: MYT13373 (antibody, V domains shown)
VH: B1 VH
VL: B1 VL with V33H, H51A, H93I
B5: MYT13417 (antibody, V domains shown)
VH: B1 VH with D62H, H66G
VL: B1 VL with Q89H, H93I
B6: MYT13418 (antibody, V domains shown)
VH: B1 VH with D63H, H66G
VL: B1 VL with Q89H, H93I
B7: MYT13424 (antibody, V domains shown)
VH: B1 VH with Y60H, H66G
VL: B1 VL
B8: MYT13374 (antibody, V domains shown)
VH: B1 VH with Y32H, H66G
VL: B1 VL with H93I
B9: MYT13421 (antibody, V domains shown)
VH: B1 VH
VL: B1 VL with Q89H, H93I
B10: MYT13432 (antibody, V domains shown)
VH: B1 VH with Y60H, H66G
VL: B1 VL with H30S, Y53H
B11: MYT13378 (antibody, V domains shown)
VH: B1 VH with D63H, H66G
VL: B1 VL with H93I
B12: MYT13366 (antibody, V domains shown)
VH: B1 VH with Y32H, H66G
VL: B1 VL with V33H, H51A, H93I
B13: MYT13368 (antibody, V domains shown)
VH: B1 VH with Y60H, H66G
VL: B1 VL with V33H, H51A, H93I
B14: MYT13376 (antibody, V domains shown)
VH: B1 VH with Y60H, H66G
VL: B1 VL with H93I
B15: MYT13371 (antibody, V domains shown)
VH: B1 VH with F64H, H66G
VL: B1 VL with V33H, H51A, H93I
B16: MYT13433 (antibody, V domains shown)
VH: B1 VH with D62H, H66G
VL: B1 VL with H30S, Y53H
B17: MYT13426 (antibody, V domains shown)
VH: B1 VH with D63H, H66G
VL: B1 VL
B18: MYT13434 (antibody, V domains shown)
VH: B1 VH with D63H, H66G
VL: B1 VL with H30S, Y53H

Biological target: T1, TROP2 on TROP2-positive NCI-H1975 cells
Experiment: cell-based or functional assay

| Binder | FOW H1975 (10 nM) |
| --- | --- |
| B1 | 1.83 fold over parent antibody |
| B2 | 1.71 fold over parent antibody |
| B3 | 1.49 fold over parent antibody |
| B4 | 1.6 fold over parent antibody |
| B5 | 1.76 fold over parent antibody |
| B6 | 1.51 fold over parent antibody |
| B7 | 1.71 fold over parent antibody |
| B8 | 1.37 fold over parent antibody |
| B9 | 1.42 fold over parent antibody |
| B10 | 1.4 fold over parent antibody |
| B11 | 1.4 fold over parent antibody |
| B12 | 1.35 fold over parent antibody |
| B13 | 1.43 fold over parent antibody |
| B14 | 1.42 fold over parent antibody |
| B15 | 1.51 fold over parent antibody |
| B16 | 1.82 fold over parent antibody |
| B17 | 1.71 fold over parent antibody |
| B18 | 1.46 fold over parent antibody |
